Assay results taken from patent US12594285B2, “Compositions and methods for protecting against airborne pathogens and irritants” (APPLIED BIOLOGICAL LABORATORIES, INC., priority 2016, dated 2026).

Experiments:
[1] = in some studies; cited from earlier work
[2] = tested on: herpes simplex virus (topical application) and hepatitis C infection; conditions: before versus after contact with the virus; cited from earlier work
[3] = tested on: Human Rhinovirus A16 (clinical strain: QCHRV.16); assay: Apical Rhinovirus replication by quantitative RT-PCR (Example 6); type: cell-based; conditions: Example 6, 24 hours pi (D1)

B1: bovine lactoferrin: bovine form of the glycoprotein lactoferrin, 69% homology to human lactoferrin (protein, UniProt P24627 20-708, looked up)
Lactotransferrin: APRKNVRWCTISQPEWFKCRRWQWRMKKLGAPSITCVRRAFALECIRAIAEKKADAVTLDGGMVFEAGRDPYKLRPVAAEIYGTKESPQTHYYAVAVVKKGSNFQLDQLQGRKSCHTGLGRSAGWIIPMGILRPYLSWTESLEPLQGAVAKFFSASCVPCIDRQAYPNLCQLCKGEGENQCACSSREPYFGYSGAFKCLQDGAGDVAFVKETTVFENLPEKADRDQYELLCLNNSRAPVDAFKECHLAQVPSHAVVARSVDGKEDLIWKLLSKAQEKFGKNKSRSFQLFGSPPGQRDLLFKDSALGFLRIPSKVDSALYLGSRYLTTLKNLRETAEEVKARYTRVVWCAVGPEEQKKCQQWSQQSGQNVTCATASTTDDCIVLVLKGEADALNLDGGYIYTAGKCGLVPVLAENRKSSKHSSLDCVLRPTEGYLAVAVVKKANEGLTWNSLKDKKSCHTAVDRTAGWNIPMGLIVNQTGSCAFDEFFSQSCAPGADPKSRLCALCAGDDQGLDKCVPNSKEKYYGYTGAFRCLAEDVGDVAFVKNDTVWENTNGESTADWAKNLNREDFRLLCLDGTRKPVTEAQSCHLAVAPNHAVVSRSDRAAHVKQVLLHQQALFGKNGKNCPDKFCLFKSETKNLLFNDNTECLAKLGGRPTYEEYLGTEYVTAIANLKKCSTSPLLEACAFLTR
For B1, the “concentration required for an antimicrobial effect relative to human lactoferrin” value [1] is given as 1/10.

B2: lactoferrin: glycoprotein of approximately 703 amino acids and approximately 80 kD in exocrine secretions (protein, UniProt P02788 20-710, looked up)
Lactotransferrin: GRRRSVQWCAVSQPEATKCFQWQRNMRKVRGPPVSCIKRDSPIQCIQAIAENRADAVTLDGGFIYEAGLAPYKLRPVAAEVYGTERQPRTHYYAVAVVKKGGSFQLNELQGLKSCHTGLRRTAGWNVPIGTLRPFLNWTGPPEPIEAAVARFFSASCVPGADKGQFPNLCRLCAGTGENKCAFSSQEPYFSYSGAFKCLRDGAGDVAFIRESTVFEDLSDEAERDEYELLCPDNTRKPVDKFKDCHLARVPSHAVVARSVNGKEDAIWNLLRQAQEKFGKDKSPKFQLFGSPSGQKDLLFKDSAIGFSRVPPRIDSGLYLGSGYFTAIQNLRKSEEEVAARRARVVWCAVGEQELRKCNQWSGLSEGSVTCSSASTTEDCIALVLKGEADAMSLDGGYVYTAGKCGLVPVLAENYKSQQSSDPDPNCVDRPVEGYLAVAVVRRSDTSLTWNSVKGKKSCHTAVDRTAGWNIPMGLLFNQTGSCKFDEYFSQSCAPGSDPRSNLCALCIGDEQGENKCVPNSNERYYGYTGAFRCLAENAGDVAFVKDVTVLQNTDGNNNEAWAKDLKLADFALLCLDGKRKPVTEARSCHLAMAPNHAVVSRMDKVERLKQVLLHQQAKFGRNGSDCPDKFCLFQSETKNLLFNDNTECLARLHGKTTYEKYLGPQYVAGITNLKKCSTSPLLEACEFLRK
In the case of B2, the “protection against viral infection” value [2] is given as “protective before contact with the virus but not after”.

B3: soluble ICAM-1: soluble form of intercellular adhesion molecule 1, sole antiviral agent of formulations R3 and R4 (protein, UniProt P05362 28-480, looked up)
extracellular domain: QTSVSPSKVILPRGGSVLVTCSTSCDQPKLLGIETPLPKKELLLPGNNRKVYELSNVQEDSQPMCYSNCPDGQSTAKTFLTVYWTPERVELAPLPSWQPVGKNLTLRCQVEGGAPRANLTVVLLRGEKELKREPAVGEPAEVTTTVLVRRDHHGANFSCRTELDLRPQGLELFENTSAPYQLQTFVLPATPPQLVSPRVLEVDTQGTVVCSLDGLFPVSEAQVHLALGDQRLNPTVTYGNDSFSAKASVSVTAEDEGTQRLTCAVILGNQSQETLQTVTIYSFPAPNVILTKPEVSEGTEVTVKCEAHPRAKVTLNGVPAQPLGPRAQLLLKATPEDNGRSFSCSATLEVAGQLIHKNQTRELRVLYGPRLDERDCPGNWTWPENSQQTPMCQAWGNPLPELKCLKDGTFPLPIGESVTVTRDLEGTYLCRARSTQGEVTRKVTVNVLSPRYE
modifications: extracellular domain
notes: soluble form of intercellular adhesion molecule 1, sole antiviral agent of formulations R3 and R4
With B3 the “replication of HRV-A16 virus at D1” value [3] was “inhibited replication”.
